Laboratory results published in patent US20150376296A1 (Memorial Sloan Kettering, published 2015).

B1: BTLA iCAR-P (PSMA-specific inhibitory chimeric antigen receptor with BTLA intracellular domain) (receptor)
chain: EVQLQQSGPELVKPGTSVRISCKTSGYTFTEYTIHWVKQSHGKSLEWIGNINPNNGGTTYNQKFEDKATLTVDKSSSTAYMELRSLTSEDSAVYYCAAGWNFDYWGQGTTVTVSSGGGGSGGGGSGGGGSDIVMTQSHKFMSTSVGDRVSIICKASQDVGTAVDWYQQKPGQSPKLLIYWASTRHTGVPDRFTGSGSGTDFTLTITNVQSEDLADYFCQQYNSYPLTFGAGTMLDLKRAAADVKSASERPSKDEMASRPWLLYSLLPLGGLPLLITTCFCLFCCLRRHQGKQNELSDTAGREINLVDAHLKSEQTEASTRQNSQVLLSETGIYDNDPDLCFRMQEGSEVYSNPCLEENKPGIVYASLNHSVIGPNSRLARNVKEAPTEYASICVRS
B2: LAG-3 iCAR-P (PSMA-specific inhibitory chimeric antigen receptor with LAG-3 intracellular domain) (receptor)
chain: EVQLQQSGPELVKPGTSVRISCKTSGYTFTEYTIHWVKQSHGKSLEWIGNINPNNGGTTYNQKFEDKATLTVDKSSSTAYMELRSLTSEDSAVYYCAAGWNFDYWGQGTTVTVSSGGGGSGGGGSGGGGSDIVMTQSHKFMSTSVGDRVSIICKASQDVGTAVDWYQQKPGQSPKLLIYWASTRHTGVPDRFTGSGSGTDFTLTITNVQSEDLADYFCQQYNSYPLTFGAGTMLDLKRAAALGAAVYFTELSSPGAQRSGRAPGALPAGHLLLFLILGVLSLLLLVTGAFGFHLWRRQWRPRRFSALEQGIHPPQAQSKIEELEQEPEPEPEPEPEPEPEPEPEQL
B3: 2B4 iCAR-P (PSMA-specific inhibitory chimeric antigen receptor with 2B4 intracellular domain) (receptor)
chain: EVQLQQSGPELVKPGTSVRISCKTSGYTFTEYTIHWVKQSHGKSLEWIGNINPNNGGTTYNQKFEDKATLTVDKSSSTAYMELRSLTSEDSAVYYCAAGWNFDYWGQGTTVTVSSGGGGSGGGGSGGGGSDIVMTQSHKFMSTSVGDRVSIICKASQDVGTAVDWYQQKPGQSPKLLIYWASTRHTGVPDRFTGSGSGTDFTLTITNVQSEDLADYFCQQYNSYPLTFGAGTMLDLKRAAAQDCQNAHQEFRFWPFLVIIVILSALFLGTLACFCVWRRKRKEKQSETSPKEFLTIYEDVKDLKTRRNHEQEQTFPGGGSTIYSMIQSQSSAPTSQEPAYTLYSLIQPSRKSGSRKRNHSPSFNSTIYEVIGKSQPKAQNPARLSRKELENFDVYS

target: human prostate-specific membrane antigen (PSMA) (human, UniProt Q04609 1-750); assay: cell-based or functional assay
Sequence (Q04609 whole entry): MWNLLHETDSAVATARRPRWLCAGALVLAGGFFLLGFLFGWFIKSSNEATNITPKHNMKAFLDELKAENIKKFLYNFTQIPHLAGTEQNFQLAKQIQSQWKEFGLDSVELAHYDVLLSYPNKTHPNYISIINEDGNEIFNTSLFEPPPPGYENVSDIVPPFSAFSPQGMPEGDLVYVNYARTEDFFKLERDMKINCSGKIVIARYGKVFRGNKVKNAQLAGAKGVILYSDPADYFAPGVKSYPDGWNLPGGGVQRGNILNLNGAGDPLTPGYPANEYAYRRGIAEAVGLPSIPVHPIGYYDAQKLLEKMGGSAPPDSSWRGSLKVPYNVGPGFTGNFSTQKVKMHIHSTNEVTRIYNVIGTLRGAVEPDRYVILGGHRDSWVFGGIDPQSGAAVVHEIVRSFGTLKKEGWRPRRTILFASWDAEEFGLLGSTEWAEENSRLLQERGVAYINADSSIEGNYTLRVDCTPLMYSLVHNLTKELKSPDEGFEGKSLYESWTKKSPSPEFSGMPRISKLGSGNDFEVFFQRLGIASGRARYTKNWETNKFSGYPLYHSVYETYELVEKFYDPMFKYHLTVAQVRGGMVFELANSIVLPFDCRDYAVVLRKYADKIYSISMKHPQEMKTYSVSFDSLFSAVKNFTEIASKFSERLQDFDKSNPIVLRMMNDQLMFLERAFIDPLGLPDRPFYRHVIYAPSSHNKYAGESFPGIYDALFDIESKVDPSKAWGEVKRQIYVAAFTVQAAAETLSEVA

Cytokine levels of 19-28z/iCAR T cells on CD19+PSMA+ off-target versus CD19+ target AAPCs, inhibition, 30%:
B1
B2
B3
